We go through 5 molecules from patent US20230045791A1 (HIFIBIO, published 2023).

In assay [1] the target is T1, His-tagged recombinant human TNFR1 (human, UniProt P19438 30-211, limits assumed).
T1 construct: also called rhTNFR1; hTNFR1-His; not shown: His tag
T1 sequence (looked up): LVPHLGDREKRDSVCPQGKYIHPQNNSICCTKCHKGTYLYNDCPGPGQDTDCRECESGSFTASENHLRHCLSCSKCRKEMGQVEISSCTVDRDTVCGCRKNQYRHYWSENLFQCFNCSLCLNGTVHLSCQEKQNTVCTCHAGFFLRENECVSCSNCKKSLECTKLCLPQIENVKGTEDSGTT
Kind of assay: ELISA on recombinant hTNFR1-His.

Assay [2] deals with T2, His-tagged recombinant human TNFR2 (human, UniProt P20333 23-257).
T2 construct: extracellular domain; also called rhTNFR2; hTNFR2-His; not shown: His tag
T2 sequence (looked up): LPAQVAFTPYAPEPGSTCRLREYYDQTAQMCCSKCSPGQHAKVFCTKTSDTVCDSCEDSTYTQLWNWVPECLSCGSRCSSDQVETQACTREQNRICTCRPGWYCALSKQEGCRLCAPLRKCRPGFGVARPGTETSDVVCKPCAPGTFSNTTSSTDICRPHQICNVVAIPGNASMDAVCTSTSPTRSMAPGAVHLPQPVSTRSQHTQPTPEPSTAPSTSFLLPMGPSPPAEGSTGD
Kind of assay: ELISA on recombinant hTNFR2-His (FIG. 14A). On the technique in general: ELISA stands for enzyme-linked immunosorbent assay.

In assay [3] the target is T3, human TNFR2 expressed on cells (CHO.hHFB3 / CHO.hTNFR2 cells; primary human T cells) (human, UniProt P20333 23-461).
T3 construct: whole, on cells
T3 sequence (looked up): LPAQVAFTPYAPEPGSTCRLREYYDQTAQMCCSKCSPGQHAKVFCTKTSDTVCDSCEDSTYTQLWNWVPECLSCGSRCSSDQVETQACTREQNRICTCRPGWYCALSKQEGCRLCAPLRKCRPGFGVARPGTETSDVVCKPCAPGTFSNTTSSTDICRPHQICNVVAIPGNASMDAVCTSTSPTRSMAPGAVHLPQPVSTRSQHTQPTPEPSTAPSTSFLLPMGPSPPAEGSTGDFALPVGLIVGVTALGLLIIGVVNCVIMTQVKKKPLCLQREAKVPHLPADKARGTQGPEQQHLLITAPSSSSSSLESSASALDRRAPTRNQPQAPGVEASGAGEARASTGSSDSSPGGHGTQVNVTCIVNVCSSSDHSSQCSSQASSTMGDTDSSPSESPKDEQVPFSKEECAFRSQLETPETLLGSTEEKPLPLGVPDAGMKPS
In words: flow cytometry on CHO cells expressing human TNFR2 (FIG. 12A). Background: Flow cytometry measures light scatter and fluorescence of single cells or particles in a stream.

Assay [4] has as its target T4, mouse TNFR2 expressed on CHO cells (mouse, UniProt P25119 23-474).
T4 construct: whole, on cells; also called mouse ortholog
T4 sequence (looked up): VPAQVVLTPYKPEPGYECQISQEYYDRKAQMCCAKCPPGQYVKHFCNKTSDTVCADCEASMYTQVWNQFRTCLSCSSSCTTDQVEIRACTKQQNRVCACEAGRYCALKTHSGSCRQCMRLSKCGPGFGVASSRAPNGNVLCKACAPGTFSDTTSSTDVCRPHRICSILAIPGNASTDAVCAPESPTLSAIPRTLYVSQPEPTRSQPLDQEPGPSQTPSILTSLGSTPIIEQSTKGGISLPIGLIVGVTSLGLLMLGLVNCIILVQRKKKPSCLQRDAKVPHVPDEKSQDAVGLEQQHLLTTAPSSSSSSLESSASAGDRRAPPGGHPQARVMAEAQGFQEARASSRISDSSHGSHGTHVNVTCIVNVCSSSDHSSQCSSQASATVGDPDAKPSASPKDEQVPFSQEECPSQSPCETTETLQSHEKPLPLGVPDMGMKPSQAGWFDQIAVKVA
In words: flow cytometry on CHO cells expressing mouse TNFR2. The method, then:
(§1) These monoclonal antibodies were then tested for their abilities to bind human and monkey TNFR2 expressed by CHO cells (CHO.hHFB3 and CHO.mkHFB3 cells respectively). Briefly, about 40,000 CHO.hHFB3 or CHO.mkHFB3 cells were seeded in tissue culture wells, and serial 1:3 dilutions of each test antibodies, with starting (highest) concentration of about 66 nM antibody, were added to each cell type and incubated for about an hour. Antibodies bound to the cells were detected by using 17 nM of anti-human Fc antibody labeled by AF647 (ALEXSA FLUOR® 647 fluorescent dye). An isotype matched negative control antibody was also used in this assay. The data, including EC₅₀ values and Eₘₐₓ for each antibody, were compiled in FIG. 2A.
The same experiments were also set up to test the ability of the test antibodies to bind CHO cells expressing mouse TNFR2 and the parental CHO cell lines (which may or may not express hamster TNFR2).

Assay [5] has as its target T1, His-tagged recombinant human TNFR1. Kind of assay: ELISA, plate coated with 0.1 µg/mL His-tagged recombinant human TNFR1. The method, then:
(§2) Briefly, tissue culture plates were coated with either 0.1 μg/mL of His-tagged recombinant human TNFR2 or TNFR1 overnight at 4° C. The coated plates were then incubated for about 1 hour on ice with 1:3 serial dilutions of each test antibodies, with starting (highest) concentration of about 66 nM antibody. Antibodies bound to the cells were detected by using 1:5000 dilution of HRP-labeled anti-human Fc antibody and TMB substrate. Isotype matched negative control antibody F3, as well as the MR2-1 positive control antibody specific for rhTNFR2 and a positive control antibody specific for rhTNFR1 were also used in this assay. The data, including EC₅₀ values for each antibody, were compiled in FIG. 4A.

Assay [6] concerns the target T2, His-tagged recombinant human TNFR2. In words: ELISA, plate coated with 0.1 µg/mL His-tagged recombinant human TNFR2, HRP anti-human Fc. The method, then: as §2
In assay [7] the target is T3, human TNFR2 expressed on cells …. In words: flow cytometry on CHO cells expressing human TNFR2 (CHO.hHFB3), anti-human Fc-AF647 detection. The method, then: as §1

B1: HFB3-14hz1c-hG1 (humanized monoclonal antibody) (antibody, V domains shown)
VH: QVQLVQSGAEVKKPGSSVKVSCKASGYTFTDYYMNWVRQAPGQGLEWMGDINPNDGGTTYAQKFQGRVTITADESTSTAYMELSSLRSEDTAVYFCAREGNYYAYDVRVWYFDVWGQGTTVTVSS
VL: DIQMTQSPSSLSASVGDRVTITCGASQDIITYLNWYQQKPGKAVKLLIYSTSSLNSGVPSRFSGSGSGTDFTLTISSLQPEDFATYYCQQYSELPYTFGGGTKVELKR
notes: also called HFB3-141c-hG1
For the molecule B1, the binding result in assay [1] is “no binding”.

B2: HFB3-18hz1-hG1 (humanized monoclonal antibody) (antibody, V domains shown)
VH: EVQLVESGGGLVQPGGSLKLSCAASGFTFSDAWMDWVRQASGKGLEWVGEVRNKANNHATYYAASVKGRFTISRDDSKNTAYLQMNSLKTEDTAVYYCTRSVGGYGTTYWYFDVWGQGTTVTVSS
VL: DIVMTQSPDSLAVSLGERATINCKSSQNLLNSGNQKNYLAWYQQKPGQPPKLLIFGASTRESGVPDRFSGSGSGTDFTLTISSLQAEDVAVYYCQSEHSYPYTFGQGTKLEIKR
As for B2, the binding result is given as “no binding” in assay [1], “binds” in assay [2] and “binds” in assay [3].

B3: HFB3-18-hG1 (mouse monoclonal antibody) (antibody, human IgG1, kappa, V domains shown)
VH: EVKLEESGGGLVQPGGSMKLSCAASGFTFSDAWMDWVRQSPEKGLEWVAEVRNKANNHATYYAESVKGRFTISRDDSKSSVYLQMNSLRAEDTGIYYCTRSVGGYGTTYWYFDVWGTGTTVTVSS
VL: DIVMTQSPSSLSVSAGEKVTMSCKSSQNLLNSGNQKNYLAWYQQKPGQPPKLLIFGASTRESGVPDRFTGSGSGTDFTLTISSVQAEDLAVYYCQSEHSYPYTFGGGTKLEIKR
notes: also called human-mouse chimeric monoclonal antibody HFB3-18
Turning to B3, the binding result is on record as “binds” in assay [4], “no binding (tested: highest concentration about 66 nM)” in assay [5], “binds” in assay [6] and “binds” in assay [7].

B4: HFB3-1-hG1 (mouse monoclonal antibody) (antibody, human IgG1, kappa, V domains shown)
VH: EFQLQQSGPELVKPGASVKISCKASSYSFTDYNMNWVKQSNGKSLEWIGIIFPKYGTTSYNQKFKGKATLTVDQSSSTAYMQLNSLTSEDSAVYYCATDGGTWYFDVWGTGTTVTVSS
VL: QIVLTQSPALMSASPGEKVTMTCSASSSVTYMYWYQQKPRSSPKPWIYLTSNLASGVPARFSGSGSGTSYSLTISSMEAEDAATYYCQQWSSNPPTFGSGTKLEIKR
notes: also called human-mouse chimeric monoclonal antibody HFB3-1; parental HFB3-1-hG1
For B4, the binding result is “no binding (tested: highest concentration about 66 nM)” in assay [5], “binds” in assay [6] and “binds” in assay [7].

B5: HFB3-1hz6-hG1 (humanized monoclonal antibody) (antibody, V domains shown)
VH: QVQLVQSGAELKKPGASVKVSCKASSYSFTDYNMNWVRQAPGQSLEWMGIIFPKYGTTSYAQKLQGRVTLTTDTSTSTAYMELRSLRSDDTAVYYCATDGGTWYFDVWGTGTTVTVSS
VL: DIQLTQSPSFLSASVGDRVTITCRASSSVTYMYWYQQKPGKAPKPWIYLTSNLASGVPSRFSGSGSGTEYTLTISSLQPEDAATYYCQQWSSNPPTFGSGTKLEIKR
With B5, the binding result in assay [1] is recorded as “no binding”; in assay [2], “binds”; in assay [3] it was “binds”.
